According to EP0959894B1:
Where two headings read alike, the source gives them in different places.

Tests used:
[1] = target: urokinase-type plasminogen activator (u-PA) (UniProt P00749); experiment: inhibition kinetics from residual enzyme activity (chromogenic assay), pseudo-first or second order conditions
[2] = target: tissue plasminogen activator (t-PA) (UniProt P00750); experiment: as above
[3] = target: tissue plasminogen activator (t-PA) (UniProt P00750); experiment: ratio of the rate constants toward t-PA and toward u-PA
[4] = target: urokinase-type plasminogen activator (u-PA) (UniProt P00749); experiment: ratio of selectivities from second order rate constants for inhibition
[5] = target: urokinase-type plasminogen activator (u-PA) (UniProt P00749); experiment: ratio of the rate constants toward u-PA and toward t-PA
[6] = target: urokinase-type plasminogen activator (u-PA) (UniProt P00749); experiment: inhibition kinetics from residual enzyme activity (chromogenic assay), pseudo-first or second order conditions; remark: listed apart in the source
[7] = target: tissue plasminogen activator (t-PA) (UniProt P00750); experiment: as above; remark: listed apart in the source
[8] = target: tissue plasminogen activator (t-PA) (UniProt P00750); experiment: ratio of selectivities from second order rate constants for inhibition
[9] = target: urokinase-type plasminogen activator (u-PA) (UniProt P00749); experiment: ratio of the second order rate constants for inhibition
[10] = target: urokinase-type plasminogen activator (u-PA) (UniProt P00749); experiment: ratio of second order rate constants for inhibition

tissue plasminogen activator (t-PA), sequence (P00750 36-562 limits assumed): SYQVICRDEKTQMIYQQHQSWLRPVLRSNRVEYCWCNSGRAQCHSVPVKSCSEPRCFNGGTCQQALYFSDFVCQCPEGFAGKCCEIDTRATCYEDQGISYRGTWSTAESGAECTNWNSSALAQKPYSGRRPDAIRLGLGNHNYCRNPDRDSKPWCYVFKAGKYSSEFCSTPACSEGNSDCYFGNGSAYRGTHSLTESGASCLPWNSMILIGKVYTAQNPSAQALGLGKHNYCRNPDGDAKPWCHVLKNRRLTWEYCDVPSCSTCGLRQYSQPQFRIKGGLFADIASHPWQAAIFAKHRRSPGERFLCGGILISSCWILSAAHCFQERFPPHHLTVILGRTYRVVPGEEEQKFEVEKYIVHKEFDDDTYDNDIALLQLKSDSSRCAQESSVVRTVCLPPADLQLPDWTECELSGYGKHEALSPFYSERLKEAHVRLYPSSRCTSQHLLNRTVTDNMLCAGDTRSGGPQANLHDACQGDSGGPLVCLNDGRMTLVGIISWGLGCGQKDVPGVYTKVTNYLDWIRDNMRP

Substance	second order rate constant for inhibition [1] [M⁻¹ s⁻¹]	second order rate constant for inhibition [2] [M⁻¹ s⁻¹]	t-PA/u-PA Selectivity [3]	fold gain of u-PA/t-PA selectivity against wild type PAI-1 [4] [fold]	t-PA/u-PA Selectivity (as headed; the value is the u-PA/t-PA ratio) [5]	second order rate constant for inhibition [6] [M⁻¹ s⁻¹]	second order rate constant for inhibition [7] [M⁻¹ s⁻¹]	fold gain of t-PA selectivity against the P3 arginine variant of PAI-1 [8] [fold]	fold gain of t-PA/u-PA selectivity against wild-type PAI-1 [8] [fold]	fold specificity toward u-PA over t-PA [9] [fold]	fold reversal in specificity toward t-PA against wild type PAI-1 [8] [fold]	fold reduction of activity against wild type PAI-1 [10] [fold]
PAI-1/UK1 (from UniProt P05121 24-402)				7	69	6.2e+06	90000					
PAI-1/P4Q,P3R (from UniProt P05121 24-402)	29000	1.4e+06	48					3.5	600			
Wild type PAI-1 (recombinant human plasminogen activator inhibitor type 1) (from UniProt P05121 24-402)		1.6e+06	0.08		11	1.9e+07	1.8e+06			11.9		

The next lines start with the values.

second order rate constant for inhibition [1] [M⁻¹ s⁻¹]	second order rate constant for inhibition [2] [M⁻¹ s⁻¹]	t-PA/u-PA Selectivity [3]	fold gain of u-PA/t-PA selectivity against wild type PAI-1 [4] [fold]	t-PA/u-PA Selectivity (as headed; the value is the u-PA/t-PA ratio) [5]	second order rate constant for inhibition [6] [M⁻¹ s⁻¹]	second order rate constant for inhibition [7] [M⁻¹ s⁻¹]	fold gain of t-PA selectivity against the P3 arginine variant of PAI-1 [8] [fold]	fold gain of t-PA/u-PA selectivity against wild-type PAI-1 [8] [fold]	fold specificity toward u-PA over t-PA [9] [fold]	fold reversal in specificity toward t-PA against wild type PAI-1 [8] [fold]	fold reduction of activity against wild type PAI-1 [10] [fold]	Substance
1.9e+07	1.6e+06	0.08										PAI-1/P4Q (from UniProt P05121 24-402)
100000	1.4e+06	14								170	190	PAI-1/P3R (from UniProt P05121 24-402)
